In article PMC4519966:

Assay: Western blot (data not shown)
Settings: glycan lost; control: wild-type NOS1AP

Substance | expression_or_secretion
NOS1AP (CAPON): S47A | no change
NOS1AP (CAPON): S183A | no change
NOS1AP (CAPON): S204A | no change
NOS1AP (CAPON): S269A | no change
NOS1AP (CAPON): S271A | no change
